T1: msCLDN18.1
T1 chain: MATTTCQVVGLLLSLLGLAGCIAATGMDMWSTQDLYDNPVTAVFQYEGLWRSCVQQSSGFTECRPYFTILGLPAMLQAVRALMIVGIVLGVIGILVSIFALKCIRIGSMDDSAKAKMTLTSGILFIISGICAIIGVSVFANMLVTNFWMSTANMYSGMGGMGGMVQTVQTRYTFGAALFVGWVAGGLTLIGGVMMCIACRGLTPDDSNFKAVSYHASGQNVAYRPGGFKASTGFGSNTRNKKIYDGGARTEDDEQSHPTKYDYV

B1: anti-Claudin 18.2 scFv-hIgG2Fc, clone 9G2 (Fc fusion)
chain: EVHLLESGGGLVQPWGSLTLSCAASGFTFSNYAMNWVRQAPGKGLEWVSGISGSGGSTYDADSVKGRFTISRDNSKNTLFLQMNSPRAEDTAVYYCATQGYSFGYFESWGQGTLVTVSSGGGGSGGGGSGGGGSGGGGSEIVLTQSPATLSLSPGERATLSCRASQNVNRYLAWYHQKPGQAPRLLIYDAFNRATGIPARFSGSGSGTDFTLTINSLEPEDFAVYYCQQRSDWPLTFGGGTKLEIK
notes: linker and orientation in the Fc fusion are not restated; not shown: human IgG2 Fc (hIgG2Fc)
B2: anti-Claudin 18.2 scFv-hIgG2Fc, clone 2A10 (Fc fusion)
chain: QVQLQESGPGLVKPSETLSLTCTVSAGSISSYYWNWIRQPAGKGLEWIGRIYTSGSTNYNPSLRSRVTMSVDTSKNQFSLKLSSVTATDTAVYYCASASYTYFDSFDIWGQGTMVTVSSGGGGSGGGGSGGGGSGGGGSDIQLTQSPSFLSASVGDRVTITCRASQDIRNFLAWYQQKPGKAPKLLIYAASTLQSGVPSRFSGSGSGTEFALTVSSLQPEDFATYYCQQVNSYPRTFGQGTKVEIK
notes: as for B1
B3: anti-Claudin 18.2 scFv-hIgG2Fc, clone 12H6 (Fc fusion)
chain: EVQLVESGGGLVQPGGSLRLSCAASGFTFSRYWMSWVRQAPGKGLEWVANIKHDGSEKYYVDSVKGRFTFSRDNAKTSLYLQMNSLRVEDTALYYCARYYGGPFDYWGQGTLVTVSSGGGGSGGGGSGGGGSGGGGSEIVLTQSPGTLSLSPGERATLSCRASQSVRSSYLAWYQQKPGQAPRLLIFGASSRATGIPDRFSGSGSGTDFTLTISRLEPEDFAVYYCQQFGSSLTFGGGTKVEIK
notes: as for B1

Target: T1, msCLDN18.1
Test: flow cytometry on HEK-293T overexpressing mouse Claudin 18.1; 5 µg/mL scFv-hIgG2Fc, detected with PE anti-human IgG Fcγ
Description: The stained samples were analyzed by flow cytometry.

Binding result, binds:
B1
B2
B3

Source: patent publication US20240216430A1 (ALLOGENE THERAPEUTICS, published 2024)
